According to patent US20110086767A1, “MUTANTS OF GLYCOSIDE HYDROLASES AND USES THEREOF FOR SYNTHESIZING COMPLEX OLIGOSACCHARIDES AND DISACCHARIDE INTERMEDIATES” (Institut Pasteur, priority 2008, published 2011):

Columns and labels:
Format in all cases: biochemical
[1] = Enzymatic glucosylation of D-GlcpNAc derivatives: D-GlcNHTCA; conditions: sucrose:acceptor 1:1 (146 mM); estimated according to peak areas
Procedure: (§1) The mutant F290K and the ASNPwt were tested on other D-GlcNAc derivatives (α-D-GlcpNAc-OMe, β-D-GlcpNAc-OMe, β-D-GlcpNAc-Oallyl and D-GlcNHTCA) used as potential acceptors. The enzymatic reaction was carried out using sucrose as donor and D-GlcNAc derivative as acceptor in a 1:1 ratio (146 mM)
(§2) Efficiency of the glucosylation reaction was evaluated by HPLC analysis of the acceptor reaction product synthesized a Biorad HPLC Carbohydrate Analysis column (HPX-87K column (300×7.8 mm))
(§3) Percentages of glucosylation rates were estimated according to peak areas as no reference was available.

[2] = Kinetics of F290K and ASNPwt in the presence of acceptor α-D-GlcpNAc-OAll
Procedure: Enzyme assays were carried out in a total volume of 2 mL containing pure enzyme (0.115 mg and 0.106 mg when using ASNPwt and F290K, respectively). Catalytic efficiency (Eff=kcat/KM) of ASNPwt and F290K variant was determined with both sucrose (D=Donor) and α-D-GlcpNAc-OAll (A=Acceptor) as variable substrates. For the determination of the catalytic efficiency for D, A was held constant at 250 mM and D was varied between 0 and 600 mM. For the determination of the catalytic efficiency for A, D was held constant at 250 mM and A was varied between 0 and 250 mM. Experiments were performed until A and D solubility limits were reached. For each experiment, the reaction velocity corresponding to the acceptor glucosylation was determined by the formation of α-D-Glcp-(1→4)-α-D-GlcpNAc-OAll (called Vi(Dp2)), corresponding to the kinetics of the reaction of interest.
Initial velocities were fitted to the Michaelis-Menten equation using Sigma-Plot. As saturation was not achieved with the mutant, efficiency was calculated by linear regression analysis of the velocity versus substrate concentration plot. Aliquots (200 μL) were removed between 0 and 60 min (at which time product formation was still linear with respect to time), heated at 95° C. for 5 min and centrifuged at 18 000 g for 5 min. The final mixtures were filtered on a 0.22 um membrane and analyzed using HPLC material previously described. […]

[3] = Product profile with 146 mM sucrose alone (HPAEC); conditions: t=24 h
Procedure: (§4) Comparison of products synthesized by wild-type and AS variants. Reactions were performed in the presence of 146 mM sucrose alone or supplemented with 146 mM acceptor. The purified wild-type or mutated GST/AS were employed at 0.5 U/mL. The reactions were stopped by heating at 95° C. for 5 min. The final mixture was centrifuged at 18 000 g for 10 min, filtered on 0.22 μm membrane and analyzed by HPLC, as previously described.
(§5) Soluble and insoluble oligosaccharides produced during the reaction were identified by HPAEC using a Dionex Carbo-Pack PA100 column at 30° C. Before analysis, the insoluble fraction was solubilized in KOH at a final total sugar concentration of 10 g/kg. Mobile phase (150 mM NaOH) was set at 1 mL/min flow rate with a sodium acetate gradient (going from 6 to 500 mM within 120 min). Detection was performed using a Dionex ED40 module with a gold working electrode and an Ag/AgCl pH reference. Note that α-D-GlcpNAc-OAll (acceptor) and its derivatives are not oxidable products and thus are not detectable by HPAEC. Sucrose, glucose, fructose, α-D-GlcpNAc-OAll (acceptor) and its derivatives (glucosylation products) were quantified by HPLC, as previously described

[4] = Enzymatic glucosylation of D-GlcpNAc derivatives: β-D-GlcpNAc-OMe; conditions: sucrose:acceptor 1:1 (146 mM); estimated according to peak areas
Procedure: as §1, §2, §3

[5] = Glucosylation of α-D-GlcpNAc-OAll by purified F290D, F290K and ASNPwt (146 mM sucrose + 146 mM acceptor)
Procedure: All assays were performed at 30° C. in 50 mM Tris buffer, pH=7.0. For the acceptor reactions, F290D, F290K and ASNPwt (1G5A) were tested on α-D-GlcpNAc-OAll.
as §4, §5

[6] = purified enzyme, Sucrose=Acceptor=146 mM, compared with ASNPwt

B1: F290K: single mutant F290K of N. polysaccharea amylosucrase 1G5A (protein)
chain: SPNSQYLKTRILDIYTPEQRAGIEKSEDWRQFSRRMDTHFPKLMNELDSVYGNNEALLPMLEMLLAQAWQSYSQRNSSLKDIDIARENNPDWILSNKQVGGVCYVDLFAGDLKGLKDKIPYFQELGLTYLHLMPLFKCPEGKSDGGYAVSSYRDVNPALGTIGDLREVIAALHEAGISAVVDFIFNHTSNEHEWAQRCAAGDPLFDNFYYIFPDRRMPDQYDRTLREIFPDQHPGGFSQLEDGRWVWTTFNSFQWDLNYSNPWVFRAMAGEMLFLANLGVDILRMDAVAKIWKQMGTSCENLPQAHALIRAFNAVMRIAAPAVFFKSEAIVHPDQVVQYIGQDECQIGYNPLQMALLWNTLATREVNLLHQALTYRHNLPEHTAWVNYVRSHDDIGWTFADEDAAYLGISGYDHRQFLNRFFVNRFDGSFARGVPFQYNPSTGDCRVSGTAAALVGLAQDDPHAVDRIKLLYSIALSTGGLPLIYLGDEVGTLNDDDWSQDSNKSDDSRWAHRPRYNEALYAQRNDPSTAAGQIYQDLRHMIAVRQSNPRFDGGRLVTFNTNNKHIIGYIRNNALLAFGNFSEYPQTVTAHTLQAMPFKAHDLIGGKTVSLNQDLTLQPYQVMWLEIA
glucosylation of acceptor D-GlcNHTCA [1]: > 95%
increase of the efficiency of the mutant compared to ASNPwt [2]: 130 fold
length of maltooligosaccharides synthesized in the absence of acceptor [3]: ≤ 20 DP
glucosylation of acceptor β-D-GlcpNAc-OMe [4]: 65-70%
maltooligosaccharide formation on addition of acceptor ([5]; 146 mM sucrose supplemented with 146 mM α-D-GlcpNAc-OAll, t=24 h): totally suppressed
times more efficient for α-D-GlcpNAc-OAll glucosylation [5, 6]: 10 times
times more efficient to form α-D-Glcp-(1→4)-D-GlcpNAc-OAll [5, 6]: 20 times
